The record followed here is publication doi:10.1101/2022.04.25.489375 (bioRxiv, 2022).

In series [1] the target is Phosphomannose isomerase from T. kodakarensis (T. kodakarensis). Description: SEC. A general note: Size exclusion chromatography separates by hydrodynamic size, large species first.
The series “SEC” concerns the molecule itself. Description: SEC.

The term stoichiometry N denotes a count of units in the complex or per binding partner. Take “Phosphomannose isomerase from T. kodakarensis (enzyme)”: the stoichiometry N in series [1] came out at 2.

B1: Phosphomannose isomerase from T. barophilus (enzyme, UniProt F0LL70 1-113, looked up)
chain: MKAEIKEFIDRGTYRKAPLFEGELPEGSYAQIVEIKPKQTVPKHYHEKQYELFYIISGQAKLGIEEREYDAKPGDIFLVKPKTVHWVVNKKEEPFRLFVIKLNYFGDDSVWLE
As for B1, the “stoichiometry N” value in “SEC” was 2.
